# Reference: patent US20090202993
# Target: T1, Phi29 DNA polymerase (Bacillus phage phi29) (UniProt P03680)
# T1 sequence: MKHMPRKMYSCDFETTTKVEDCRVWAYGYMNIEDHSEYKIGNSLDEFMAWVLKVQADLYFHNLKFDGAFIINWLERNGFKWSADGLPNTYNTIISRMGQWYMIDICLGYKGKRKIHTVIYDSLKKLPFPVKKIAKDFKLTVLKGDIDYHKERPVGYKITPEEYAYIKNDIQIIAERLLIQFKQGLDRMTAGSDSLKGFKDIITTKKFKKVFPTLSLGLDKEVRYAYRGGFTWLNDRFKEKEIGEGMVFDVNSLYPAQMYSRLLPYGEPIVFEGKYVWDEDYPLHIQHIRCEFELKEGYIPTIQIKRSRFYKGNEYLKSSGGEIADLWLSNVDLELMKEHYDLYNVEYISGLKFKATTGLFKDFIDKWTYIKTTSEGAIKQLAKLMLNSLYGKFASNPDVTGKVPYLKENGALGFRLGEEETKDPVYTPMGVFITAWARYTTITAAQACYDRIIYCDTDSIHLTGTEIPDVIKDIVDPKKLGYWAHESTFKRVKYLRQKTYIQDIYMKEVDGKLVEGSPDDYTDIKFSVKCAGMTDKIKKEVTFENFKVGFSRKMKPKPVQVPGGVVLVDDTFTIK
# Test: cleavage_in_vitro
# Details: Tango buffer, 37 C, 3 h; Mg2+, Mn2+ or Co2+ required; scale: % increase in acid-soluble product vs no enzyme
substance,measurement,value
[3H]poly(A) RNA,activity,30
